Measurements: paper PMC10907219, “Leishmania profilin interacts with actin through an unusual structural mechanism to control cytoskeletal dynamics in parasites” (The Journal of Biological Chemistry, 2024)

B1: Leishmania major profilin (LmProfilin), wild type (natural protein)
chain: SWQAYVDDSLIGSGNMHSAAIIGAADGSYWAYGGSYVPQPEEVQHIQKCLSDFSFVQSSGVNIYGVKFFGLQCGTDGDCKYIFFKKGAAGGCIYTTKQAFIVAVYGNPGDTSSLQQDLEKNTAHAVTVNPADCNTTVKRIADYLIKLGY
notes: Leishmania major profilin, TriTrypDB LmjF.32.0520, UniProt Q4Q5N1; codon-optimised synthetic gene in pCoofy3; also called WT LmProfilin; LmProf-WT; source: E. coli BL21(DE3), purified (Ni-NTA, tag cleavage with 3C-PreScission protease, gel filtration); not shown: His6, N-terminal, cleaved; GST, N-terminal, cleaved
B2: decamer poly-L-proline peptide (peptide)
peptide: PPPPPPPPPP
notes: ten L-prolines written out from these words; also called poly-L-proline decamer; polyproline decamer; source: synthetic peptide, bought: CASLO ApS

Legend:
[1] = target: Leishmania major actin (LmActin), ATP-actin monomer (UniProt P45520); assay: ITC; settings: three independent ITC experiments for each protein; parent: 93.5
[2] = target: Leishmania major actin (LmActin), ATP-actin monomer (Leishmania major) (UniProt P45520); assay: ITC; LmActin (14-19 μM) in the sample cell, profilin (150 μM) in the syringe; 22 °C; G-buffer (2 mM Tris pH 7.5, 0.5 mM β-mercaptoethanol, 0.2 mM CaCl2, 0.2 mM ATP); single set of sites model; three independent experiments
[3] = target: T1, Leishmania major actin (LmActin), ATP-actin monomer (Leishmania major, UniProt P45520 1-376, ATP-bound with Ca2+ (G-buffer), monomeric; C-terminal beta-thymosin-His10 tag removed by chymotrypsin; initiator Met absent as in the 8C47 entity (equals Q9U1E8 2-376)); assay: crystal structure; LmProfilin and LmActin mixed at ~1:1 molar ratio, 4.5 to 6.5 mg/ml, sitting drop; 0.1 M Bis-Tris pH 5.5, PEG4000 26% (w/v), 0.2 M NaCl; ATP-actin monomer with Ca2+; settings: both partners purified
[4] = target: T1, Leishmania major actin (LmActin), …; assay: ITC; LmActin (14-19 μM) in the sample cell, profilin (150 μM) in the syringe; 22 °C; G-buffer (2 mM Tris pH 7.5, 0.5 mM β-mercaptoethanol, 0.2 mM CaCl2, 0.2 mM ATP); single set of sites model; three independent experiments; settings: both partners purified
[5] = target: B1; assay: other fluorescence titration; intrinsic tryptophan fluorescence of profilin (1 μM) with 3 to 3156 μM poly-L-proline decamer; room temperature; 20 mM Hepes pH 8.0, 50 mM NaCl; excitation 295 nm; OneSiteBind fit; settings: both partners purified

Molecule “Leishmania major profilin (LmProfilin), wild type (from UniProt Q4Q5N1) L115S; L119S” has a Kd [1] of 2.74 µM.

With “LmProfilin-K68A (from UniProt Q4Q5N1 2-150) (natural protein)” the Kd [2] was 3 µM.

In the case of “LmProfilin-WH2-SS (Leu115 and Leu119 replaced by serines) (from UniProt Q4Q5N1 2-150) (natural protein)”, the fold reduction of affinity against WT profilin [2] is reported as 25 fold.

“LmProfilin-Y6A (from UniProt Q4Q5N1 2-150) (natural protein)” gave a Kd [2] of 0.09 µM.

For “LmProfilin-ΔWH2 (entire WH2-like motif deleted) (from UniProt Q4Q5N1 2-150) (natural protein)”, the fold reduction of affinity against WT profilin [2] was 25 fold.

With B1 the “stoichiometry N” value [3] was 1 and the Kd [4] was ~0.09 µM.

B2 gave a Kd [5] of 263 µM.
